Read-outs that look alike come from different tables or passages of the source.
Tests used:
[1] = target: T1, recombinant human ErbB3/Fc fusion protein (human, UniProt P21860 20-643); assay: ECL (MSD) competition: rhErbB3/Fc coated on the plate, antibody dilutions, then NRG1-β1 at 0.25 µg/ml; bound NRG1-β1 detected
T1 construct: Bought (R&D Systems, Cat. No. 348-RB); the NRG1-α1 assay names Cat. No. 4518-RB instead; also called rhErbB3-Fc; rhErbB3/Fc; not shown: Fc portion of the bought fusion protein

[2] = target: T1, recombinant human ErbB3/Fc fusion …; assay: ECL competition; inhibition of NRG1-β1 binding to plate-coated rhErbB3/Fc
Method: (§1) Multi-array 96-well standard binding plates (Meso Scale Discovery, Cat. No. L15XA-3) were coated with 50 μl of 0.5 μg/mL rhErbB3/Fc (R&D systems, Cat. No. 348-RB) in PBS (Invitrogen, Cat. No. 14040-133) for one hour at room temperature with no agitation. The plates then were washed three times with PBS+0.1% Tween20 (Sigma P5927) and blocked with 200 μl of 100% Horse Serum, heat inactivated (GIBCO, Cat. No. 26050-088) for 1.5 hours at room temperature. After washing the plates three times with PBS+0.1% Tween, 25 μl of the antibody dilutions were added to the plates for another hour at room temperature with agitation. […] The plates then were washed three times with PBS+0.1% Tween, and 150 μl of 1× read buffer (Meso Scale Discovery, Cat. No. R92TC-1) was added to each well before the plates were analyzed on a Sector® Imager 2400 (Meso Scale Discovery) instrument.

[3] = target: T1, recombinant human ErbB3/Fc fusion …; assay: ECL (MSD): NRG1-β1 (0.25 µg/ml) binding to plate-coated rhErbB3/Fc after antibody dilutions; the antibody enhances the NRG1-β1 signal
Method: MA2400 96-well standard binding plates (Meso Scale Discovery, Cat. No. L15XA-6) were coated with 50 μl of 0.5 μg/mL rhErbB3/Fc (R&D systems, Cat. No. 348-RB) in PBS (Invitrogen, Cat. No. 14040-133) for overnight at 4° C. with no agitation. The plates then were washed 3 times with PBS+0.1% Tween20 (Sigma P5927) and blocked with 200 μl of PBS containing 5% BSA (Sera Care Life Sciences, Cat. No. AP-4510-80) for 1.5 hour at room temperature. After washing the plates 3 times with PBS, 25 μl of the antibody dilutions were added to the plates for another hour at room temperature with agitation. […] The plates then were washed 3 times with PBS, and 150 μl of 1× read buffer (Meso Scale Discovery, Cat. No. R92TC-1) was added to each well before the plates were analyzed on a Sector® Imager 2400 (Meso Scale Discovery) instrument.

[4] = target: T1, recombinant human ErbB3/Fc fusion …; assay: SPR Biacore T100, 25 C; antibody captured on anti-mouse IgG, rhErbB3-Fc injected
Method: Rabbit anti-mouse IgGs (Biacore, Cat. No. BR-1008-38) were immobilized on carboxymethylated dextran CM4 sensor chips (Biacore, Cat. No. BR-1005-34) by amine coupling (BIAcore, Cat. No. BR-1000-50) using a standard coupling protocol according to vendor's instructions. The analyses were performed at 25° C., using PBS (Invitrogen, Cat. No. 14040-133) containing 0.05% surfactant P20 (Biacore, Cat. No. BR-1000-54) as running buffer.
The antibodies were captured in individual flow cells at a flow rate of 10 μl/minute. Injection time was varied for each antibody to yield an Rₘₐₓ between 30 and 60 RU. […] The dissociation phase was monitored for up to 3600 seconds. The surface was then regenerated with two 60-seconds injection of 10 mM Glycine-HCl, pH 1.7 (made from Glycine pH 1.5 (Biacore, Cat. No. BR-1003-54) and pH 2.0 (Biacore, Cat. No. BR-1003-55)) at a flow rate of […].
Kinetic parameters were determined using the kinetic function of the BIAevaluation software (Biacore) with double reference subtraction. Kinetic parameters for each antibody, kₐ (association rate constant), kd (dissociation rate constant) and KD (equilibrium dissociation constant) were determined.

human ErbB3 [5] = target: T2, human ErbB3 (human, UniProt P21860 20-1342); assay: cell-based or functional assay
human ErbB3 [6] = target: T2, human ErbB3; assay: cell-based or functional assay; remark: listed apart in the source
[7] = target: T1, recombinant human ErbB3/Fc fusion …; assay: ECL (MSD) competition: rhErbB3/Fc coated on the plate, antibody dilutions, then NRG1-β1 at 0.25 µg/ml; bound NRG1-β1 detected; remark: listed apart in the source
Method: as §1

[8] = target: T3, recombinant human ErbB3 monomeric protein (cleaved rhErbB3) (human, UniProt P21860 20-643, limits assumed); assay: SPR Biacore 37 C; purified antibody captured on anti-human Fc, cleaved rhErbB3 0.3125-5.0 nM
T3 construct: Monomer made by protease cleavage of the Fc fusion; also called Monomeric ErbB3
Method: The analyses were performed at 37° C. using PBS (Invitrogen, Catalog No. 14040-133) containing 0.05% surfactant P20 (Biacore, Catalog No. BR-1000-54) as running buffer.
The antibodies were captured in individual flow cells at a flow rate of […]. Injection time was varied for each antibody to yield an Rₘₐₓ between 30 and 60 RU. […] The dissociation phase was monitored for up to 1200 seconds. The surface was then regenerated with two 60 second injections of Glycine pH 2.25 (made from Glycine pH 2.0 (Biacore, Catalog No. BR-1003-55) and pH 2.5 (Biacore, Catalog No. BR-1003-56)) at […].
The binding affinities and kinetics of certain purified monoclonal antibodies were also determined. To further characterize certain antibodies, the surface plasmon resonance experiments described above were conducted using concentrations of cleaved rhErbB3 between 0.3125 nM and 5.0 nM (a 2-fold serial dilution).

[9] = target: T3, recombinant human ErbB3 monomeric …; assay: SPR Biacore 37 C; antibody captured on anti-human Fc, cleaved rhErbB3 (monomer) injected

| IC50 (read off the curve) [1] | IC50 [2] | EC50 (read off the curve) [3] | Kd [4] | koff [4] | kon [4] | inhibition of NRG1-β1 induced phosphorylation of Akt in MCF7 and DU145 cells (ELISA) (human ErbB3 [5]) | inhibition of NRG1-β1 induced phosphorylation of ErbB3 in SKBR-3 cells (ELISA, 5 µg/ml antibody) (human ErbB3 [5]) | IC50, NRG1-β1 dependent proliferation of MCF7 cells (MTT) (human ErbB3 [6]) | IC50 (read off the curve) [7] | Kd [8] | koff [8] | kon [8] | inhibition of phosphorylation of ErbB3 in exponentially growing SKBR-3 cells (ELISA) (human ErbB3 [5]) | Kd [9] | koff [9] | kon [9] | Binder |
| --- | --- | --- | --- | --- | --- | --- | --- | --- | --- | --- | --- | --- | --- | --- | --- | --- | --- |
| – | 0.122 nM | – | – | – | – | – | – | – | ~0.1 nM | 0.16 nM | 0.00045 s⁻¹ | 2.9e+06 M⁻¹ s⁻¹ | ≥ 50% | – | – | – | Sh24C05-25 N62S IgG1 (antibody, Humanized, human IgG1/kappa) heavy: not shown light: DIQMTQSPSSLSASVGDRVTITCRASQEISGYLSWFQQKPGKAPKSLIYAASTLDSGVPSRFSGSGSGTDFTLTISSLQPEDFATYYCLQYDSYPYTFGQGTKLEIKRTVAAPSVFIFPPSDEQLKSGTASVVCLLNNFYPREAKVQWKVDNALQSGNSQESVTEQDSKDSTYSLSSTLTLSKADYEKHKVYACEVTHQGLSSPVTKSFNRGEC |
| – | 0.124 nM | – | – | – | – | – | – | – | ~0.1 nM | 0.076 nM | 0.00027 s⁻¹ | 3.5e+06 M⁻¹ s⁻¹ | ≥ 50% | 0.076 nM | 0.00027 s⁻¹ | 3.5e+06 M⁻¹ s⁻¹ | Sh24C05-31 N62S IgG1 (antibody, Humanized, human IgG1/kappa) heavy: not shown light: DIQMTQSPSSLSASVGDRVTITCRASQEISGYLSWYQQKPGKAPKRLIYAASTLDSGVPSRFSGSGSGTEFTLTISSLQPEDFATYYCLQYDSYPYTFGQGTKLEIKRTVAAPSVFIFPPSDEQLKSGTASVVCLLNNFYPREAKVQWKVDNALQSGNSQESVTEQDSKDSTYSLSSTLTLSKADYEKHKVYACEVTHQGLSSPVTKSFNRGEC |
| – | 0.086 nM | – | – | – | – | – | – | – | ~0.1 nM | 0.074 nM | 0.00024 s⁻¹ | 3.2e+06 M⁻¹ s⁻¹ | ≥ 50% | – | – | – | Sh24C05-31 N62S IgG2 (antibody, Humanized, human IgG2/kappa) heavy: QVQLVESGGGLVKPGGSLRLSCAASGFTFSDYAMSWIRQAPGKGLEWVSTISDGGTYTYYPDSVKGRFTISRDNAKNSLYLQMNSLRAEDTAVYYCAREWGDYDGFDYWGQGTLVTVSSASTKGPSVFPLAPCSRSTSESTAALGCLVKDYFPEPVTVSWNSGALTSGVHTFPAVLQSSGLYSLSSVVTVPSSNFGTQTYTCNVDHKPSNTKVDKTVERKCCVECPPCPAPPVAGPSVFLFPPKPKDTLMISRTPEVTCVVVDVSHEDPEVQFNWYVDGVEVHNAKTKPREEQFNSTFRVVSVLTVVHQDWLNGKEYKCKVSNKGLPAPIEKTISKTKGQPREPQVYTLPPSREEMTKNQVSLTCLVKGFYPSDIAVEWESNGQPENNYKTTPPMLDSDGSFFLYSKLTVDKSRWQQGNVFSCSVMHEALHNHYTQKSLSLSPGK light: DIQMTQSPSSLSASVGDRVTITCRASQEISGYLSWYQQKPGKAPKRLIYAASTLDSGVPSRFSGSGSGTEFTLTISSLQPEDFATYYCLQYDSYPYTFGQGTKLEIKRTVAAPSVFIFPPSDEQLKSGTASVVCLLNNFYPREAKVQWKVDNALQSGNSQESVTEQDSKDSTYSLSSTLTLSKADYEKHKVYACEVTHQGLSSPVTKSFNRGEC |

Further lines, the binder ahead of its results:

| Binder | IC50 (read off the curve) [1] | IC50 [2] | EC50 (read off the curve) [3] | Kd [4] | koff [4] | kon [4] | inhibition of NRG1-β1 induced phosphorylation of Akt in MCF7 and DU145 cells (ELISA) (human ErbB3 [5]) | inhibition of NRG1-β1 induced phosphorylation of ErbB3 in SKBR-3 cells (ELISA, 5 µg/ml antibody) (human ErbB3 [5]) | IC50, NRG1-β1 dependent proliferation of MCF7 cells (MTT) (human ErbB3 [6]) | IC50 (read off the curve) [7] | Kd [8] | koff [8] | kon [8] | inhibition of phosphorylation of ErbB3 in exponentially growing SKBR-3 cells (ELISA) (human ErbB3 [5]) | Kd [9] | koff [9] | kon [9] |
| --- | --- | --- | --- | --- | --- | --- | --- | --- | --- | --- | --- | --- | --- | --- | --- | --- | --- |
| U1-53 (antibody, V domains shown) VH: EVQLVESGGGLVQPGGSLRLSCAASGFTFSIYSMNWVRQAPGKGLEWVSYISSSSSTIYYADSVKGRFTISRDNAKNSLYLQMNSLRDEDTAVYYCARDRGDFDAFDIWGQGTMVTVSS VL: DIQMTQSPSSLSASVGDRVTITCQASQDITNYLNWYQQKPGKAPKLLIYDASNLETGVPSRFSGSGSGTDFTFTISSLQPEDIATYNCQQCENFPITFGQGTRLEIK | ~0.1 nM | 0.113 nM | – | – | – | – | – | – | – | – | – | – | – | – | – | – | – |
| 09D03 (antibody, mouse IgG2b, kappa, V domains shown, Murine IgG2b/kappa, from hybridoma; also called anti-hErbB3 monoclonal antibody 09D03) VH: QVTLKESGPGILRPSQTLSLTCSFSGFSLSTFGLSVGWIRQPSGKGLEWLAHIWWDDDKYYNPALKSRLTISKDTSKNQVFLKIANVDTADTATYYCARIGADALPFDYWGQGTTLTVSS VL: DIVLTQTAPSVPVTPGESVSISCRSSKSLLHSNGNTYLYWFLQRPGQSPQLLIYRMSNLASGVPDRFSGSGSGTAFTLRISRVEAEDVGVYYCMQHLEYPFTFGSGTKLEIKR | – | – | ~1 nM | 0.08 nM | 2e-05 s⁻¹ | 270000 M⁻¹ s⁻¹ | ≥ 80% | ≥ 50% | 2.28 nM | – | – | – | – | – | – | – | – |
| Sh24C05-25 N62S IgG2 (antibody, Humanized, human IgG2/kappa) heavy: QVQLVESGGGLVKPGGSLRLSCAASGFTFSDYAMSWIRQAPGKGLEWVSTISDGGTYTYYPDSVKGRFTISRDNAKNSLYLQMNSLRAEDTAVYYCAREWGDYDGFDYWGQGTLVTVSSASTKGPSVFPLAPCSRSTSESTAALGCLVKDYFPEPVTVSWNSGALTSGVHTFPAVLQSSGLYSLSSVVTVPSSNFGTQTYTCNVDHKPSNTKVDKTVERKCCVECPPCPAPPVAGPSVFLFPPKPKDTLMISRTPEVTCVVVDVSHEDPEVQFNWYVDGVEVHNAKTKPREEQFNSTFRVVSVLTVVHQDWLNGKEYKCKVSNKGLPAPIEKTISKTKGQPREPQVYTLPPSREEMTKNQVSLTCLVKGFYPSDIAVEWESNGQPENNYKTTPPMLDSDGSFFLYSKLTVDKSRWQQGNVFSCSVMHEALHNHYTQKSLSLSPGK light: DIQMTQSPSSLSASVGDRVTITCRASQEISGYLSWFQQKPGKAPKSLIYAASTLDSGVPSRFSGSGSGTDFTLTISSLQPEDFATYYCLQYDSYPYTFGQGTKLEIKRTVAAPSVFIFPPSDEQLKSGTASVVCLLNNFYPREAKVQWKVDNALQSGNSQESVTEQDSKDSTYSLSSTLTLSKADYEKHKVYACEVTHQGLSSPVTKSFNRGEC | – | 0.112 nM | – | – | – | – | – | – | – | ~0.1 nM | 0.12 nM | 0.00034 s⁻¹ | 2.7e+06 M⁻¹ s⁻¹ | ≥ 50% | – | – | – |
